Reference: patent US9932382B2, “Kv2.1 channel-derived peptides and methods of use” (University of Pittsburgh—Of the Commonwealth System of …, priority 2014, dated 2018)

Assays:
Kv2.1/syntaxin binding = target: T1, Kv2.1/syntaxin binding (Homo sapiens, UniProt Q16623); test: Co-immunoprecipitation of Kv2.1 with syntaxin from transfected CHO cells; type: cell-based; details: for effect on Kv2.1/syntaxin binding (co-immunoprecipitation): syntaxin-expressing CHO cells co-transfected with Kv2.1 and peptide plasmid, syntaxin immunoprecipitates probed for Kv2.1
T1 construct: expressed in transfected cells; host or cells: CHO cells
T1 sequence (Q16623 whole entry): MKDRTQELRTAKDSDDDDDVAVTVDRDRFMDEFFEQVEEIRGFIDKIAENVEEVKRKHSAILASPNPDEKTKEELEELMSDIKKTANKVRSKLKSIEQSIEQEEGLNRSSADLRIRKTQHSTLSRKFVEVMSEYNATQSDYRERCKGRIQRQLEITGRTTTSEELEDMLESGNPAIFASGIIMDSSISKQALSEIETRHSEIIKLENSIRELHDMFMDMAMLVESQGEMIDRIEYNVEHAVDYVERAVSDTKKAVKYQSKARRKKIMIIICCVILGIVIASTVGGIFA
Experimental: For electrophysiological experiments, mixed cortical neuronal/glial cultures were prepared from embryonic day 16 (E16) Sprague-Dawley rats (Charles River Laboratories, Wilmington, Mass., USA). Donor rats were euthanized by gradual CO2 exposure. Cortices were dissociated with trypsin, and the resultant cell suspension, adjusted to 670,000 cells per well, was plated on glass coverslips in 6-well plates as described previously (Hartnett et al., J Neurochem 68, 1836-1845, 1997). Non-neuronal cell proliferation was inhibited after two weeks in culture with 1-2 μM cytosine arabinoside, and cultures utilized at three to four weeks in vitro. For neuronal transfection, cells were treated for five hours in serum-free medium with 2 μL LIPOFECTAMINE™ 2000 (Invitrogen, Carlsbad, Calif.), 50 μL Optimem (GIBCO, Grand Island, N.Y.), and 1.5 μg DNA per well. For CHO cell transfections, cells were plated on coverslips in 24-well plates at a density of 5.6×10^4 cells per well for electrophysiological measurements or in 100 mm dishes at a density of 1.7×10^6 cells per dish for biochemical studies. Cells were treated for 3-4 hours in serum-free medium with a total of 1.2 μL LIPOFECTAMINE™ and 0.28 μg DNA per well for electrophysiology, or 55.1 μL LIPOFECTAMINE™ and 7.33 μg DNA per dish for biochemistry. Following transfection, cells were maintained in F12 medium containing fetal bovine serum at 37° C., 5% CO2 for 24 hours prior to experimentation.
Protein was harvested by washing cell culture dishes with ice cold PBS followed by a short incubation with 1% 3-[(3-cholamidopropyl) dimethylammonio]-1-propanesulfonate buffer. Protein A/G agarose bead slurry (Santa Cruz, Dallas, Tex.) was added to the samples and rocked at 4° C. for 1 hour in order to pre-clear non-specific protein binding. Samples were then incubated overnight at 4° C. with the appropriate immunoprecipitating antibodies. Following another incubation with the bead slurry, the protein samples were prepared/denatured by the addition of sample preparation buffer (625 mM Tris, 25% glycerol, 2% sodium dodecyl sulfate (SDS), 0.01% bromophenol blue and 5% β-mercaptoethanol) and heated at 95° C. for 5 min prior to SDS polyacrylamide gel electrophoresis and immunoblotting.
Protein samples from equal amounts of cell lysate were separated on 10% sodium dodecyl sulfate SDS polyacrylamide gels by electrophoresis using the Mini Protean 3 System (Bio-Rad, Hercules, Calif.). Separated protein bands were transferred onto 0.2 μm nitrocellulose membranes (Bio-Rad), blocked with 1% bovine serum albumin (BSA) in PBS with 0.05% Tween 20 (PBST) at room temperature for 1 hour, and probed with appropriate primary antibodies diluted in PBST. Blots were then incubated with infrared fluorescent goat secondary antibodies at room temperature for 1 hour, visualized using the Odyssey Imaging System (LI-COR Biosciences, Lincoln, Nebr.), and quantified using infrared fluorimetry.
After establishing that C1a effectively precluded the oxidant-induced K^+ current increase in neurons, studies were performed to identify the sub-domains within C1a that could retain the ability to disrupt Kv2.1/syntaxin binding. C1a was divided into overlapping proximal and distal segments, hereafter referred to as C1a411-472 and C1a441-522, respectively. Co-immunoprecipitation experiments were performed to compare the ability of C1a and the smaller segments to displace Kv2.1 from syntaxin. Syntaxin immunoprecipitates of protein samples obtained from CHO cells transfected with a syntaxin-expressing plasmid, and co-transfected with Kv2.1 together with C1a, C1a411-472, or C1a441-522, were probed for Kv2.1.

human syntaxin = target: T2, human syntaxin (Homo sapiens, UniProt Q16623); test: Far-Western analysis of syntaxin binding to SPOT peptide arrays; details: for syntaxin binding inferred from the overlapping peptide array: sequence deduced from or picked out of the 15-mer array, not spotted itself; for syntaxin binding to spotted peptide (fluorescence intensity): 15-mer peptides on PVDF membrane, human syntaxin over-expressing CHO cell lysate, four arrays
T2 construct: expressed in transfected cells; host or cells: CHO cells (lysate)
T2 sequence (Q16623 whole entry): as above
Experimental: FIG. 8: Binding of Kv2.1 peptides to syntaxin. The 76 overlapping Kv2.1 peptides were spot-plated as an array onto a polyvinylidene fluoride membrane using the SPOTS-synthesis method. Membranes were incubated with a human syntaxin over-expressing CHO cell lysate and a far-Western analysis of syntaxin binding to the peptide arrays was performed using a commercially available syntaxin antibody and fluorescently tagged secondary antibody. Fluorescence intensity was quantified as an index of syntaxin binding to the spot array. Bars represent the mean+/−SEM of binding in four independent arrays. […]

C1a441-472: overlapping middle segment of C1a, residues 441-472 of rat Kv2.1 (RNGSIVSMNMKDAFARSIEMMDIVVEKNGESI; UniProt P15387 441-472, looked up, fragment)
mean±SEM ratio of Kv2.1 to syntaxin immunoblots (Kv2.1/syntaxin binding; CHO cells, n=3, baseline=0.24±0.08): 0.25±0.1
effect on Kv2.1/syntaxin binding (co-immunoprecipitation) (Kv2.1/syntaxin binding): had no effect on syntaxin's ability to bind to Kv2.1

DIVVEEKNGE (DIVVEKNGE; listed as Rattus norvegicus) [reference compound]
syntaxin binding inferred from the overlapping peptide array (human syntaxin): non-syntaxin-binding

HLSPNKWKW (listed as Rattus norvegicus)
syntaxin binding inferred from the overlapping peptide array (human syntaxin): represents the syntaxin-binding domain

peptide #22: 15-mer, residues 472-486 of SEQ ID NO: 3 (DKVQDNHLSPNKWKW; listed as Rattus norvegicus)
syntaxin binding to spotted peptide (fluorescence intensity) (human syntaxin): initial peptide showing substantial binding

peptide #28: 15-mer, residues 478-492 of SEQ ID NO: 3 (HLSPNKWKWTKRALS; listed as Rattus norvegicus)
syntaxin binding to spotted peptide (fluorescence intensity) (human syntaxin): final peptide showing substantial binding

B1: C1a411-472: proximal segment of C1a, residues 411-472 of rat Kv2.1 (protein, UniProt P15387 411-472, looked up, fragment)
chain: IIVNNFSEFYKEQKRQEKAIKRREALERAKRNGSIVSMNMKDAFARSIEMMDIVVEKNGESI
effect on Kv2.1/syntaxin binding (co-immunoprecipitation) (Kv2.1/syntaxin binding): did not
